No end group written: not given here.
Key:
[1] = target: T1, Kv1.3 (mKate2-tagged, K-ΔKv1.3) 53-C-terminus (deletion M1-D52) (Homo sapiens, UniProt P22001); test: confocal fluorescence binding on HEK293 cells
[2] = target: Kv1.3 (mKate2-tagged, K-Kv1.3) (Homo sapiens, UniProt P22001); test: confocal fluorescence binding on HEK293 cells
[3] = target: T1, Kv1.3 (mKate2-tagged, K-ΔKv1.3) …; test: fluorescent competitive binding assay (confocal, HEK293 cells)

T1 sequence (P22001 53-575, stated change not applied): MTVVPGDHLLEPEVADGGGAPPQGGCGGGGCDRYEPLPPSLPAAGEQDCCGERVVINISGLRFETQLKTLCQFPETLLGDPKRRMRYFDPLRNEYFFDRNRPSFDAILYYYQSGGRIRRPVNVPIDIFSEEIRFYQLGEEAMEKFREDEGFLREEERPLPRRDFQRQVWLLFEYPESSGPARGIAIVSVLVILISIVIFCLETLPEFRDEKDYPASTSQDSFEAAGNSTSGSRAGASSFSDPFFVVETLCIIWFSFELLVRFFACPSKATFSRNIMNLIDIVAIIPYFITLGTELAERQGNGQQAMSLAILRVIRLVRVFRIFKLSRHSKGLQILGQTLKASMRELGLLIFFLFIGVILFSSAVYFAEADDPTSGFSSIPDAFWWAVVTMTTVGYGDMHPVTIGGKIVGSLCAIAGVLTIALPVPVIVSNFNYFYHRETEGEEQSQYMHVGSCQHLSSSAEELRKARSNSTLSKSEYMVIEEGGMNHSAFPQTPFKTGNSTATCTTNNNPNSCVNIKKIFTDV
Chain of Kv1.3 (mKate2-tagged, K-Kv1.3) (P22001 whole entry): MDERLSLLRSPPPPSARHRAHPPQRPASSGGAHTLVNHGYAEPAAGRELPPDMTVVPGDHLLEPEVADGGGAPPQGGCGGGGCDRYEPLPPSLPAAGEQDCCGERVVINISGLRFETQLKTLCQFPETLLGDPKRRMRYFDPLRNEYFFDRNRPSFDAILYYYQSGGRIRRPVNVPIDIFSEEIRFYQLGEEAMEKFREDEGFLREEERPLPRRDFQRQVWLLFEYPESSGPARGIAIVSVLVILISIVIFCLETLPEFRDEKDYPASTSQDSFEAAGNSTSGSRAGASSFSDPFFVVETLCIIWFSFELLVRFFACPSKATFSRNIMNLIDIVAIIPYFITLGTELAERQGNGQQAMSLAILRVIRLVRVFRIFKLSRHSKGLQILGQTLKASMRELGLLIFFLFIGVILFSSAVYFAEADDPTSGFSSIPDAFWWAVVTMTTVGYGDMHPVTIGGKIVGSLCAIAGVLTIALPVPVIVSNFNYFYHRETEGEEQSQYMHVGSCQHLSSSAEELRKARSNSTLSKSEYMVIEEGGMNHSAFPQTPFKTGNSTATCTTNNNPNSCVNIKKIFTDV

In the case of Atto488-TVIDVKCTSPKQCLPPCKAQFGIRAGAKCMNGKCKCYPH (ends and bridges not checked) [Hongotoxin 1 (Atto488-labeled, A-HgTx)], the Kd [1] is reported as 0.48 nM and the Kd [2] is reported as 0.3 nM.

In the case of TVIDVKCTSPKQCLPPCKAQFGIRAGAKCMNGKCKCYPH (ends and bridges not checked; cysteine pairing not given here) [Hongotoxin 1 (HgTx1)], the Ki [3] is reported as 0.2 nM.

In the case of GVEINVKCSGSPQCLKPCKDAGMRFGKCMNRKCHCTPK (ends and bridges not checked; cysteine pairing not given here) [Kaliotoxin 1 (KTx1)], the Ki [3] is reported as 4 nM.

Work on GVPINVSCTGSPQCIKPCKDAGMRFGKCMNRKCHCTPK (ends and bridges not checked; cysteine pairing not given here) [Agitoxin 2 (AgTx2)] yielded a Ki [3] of 1.1 nM.
